{"source": "patent US20170114100A1", "about": "(ALBERT EINSTEIN COLLEGE OF MEDICINE, published 2017)", "target": "the molecule itself", "experiment": "SEC dimerization assay (FIG. 4A)"}
{"protein": "BAX 4MA (C62S, C126S, V121C, I136C), internally cross-linked mutant (other, internal cross-link between the introduced cysteines (V121C, I136C), reduced by DTT, also called BAX 4MA dimer; 4MA monomer) MDGSGEQPRGGGPTSSEQIMKTGALLLQGFIQDRAGRMGGEAPELALDPVPQDASTKKLSESLKRIGDELDSNMELQRMIAAVDTDSPREVFFRVAADMFSDGNFNWGRVVALFYFASKLCLKALSTKVPELIRTCMGWTLDFLRERLLGWIQDQGGWDGLLSYFGTPTWQTVTIFVAGVLTASLTIWKKMG", "values": [{"measurement": "binding result", "result": "binds"}]}
